The target of data set [1] is T1, Zn(II)Har150 (Porphyromonas gingivalis ATCC 33277) (UniProt B2RKX7).
T1 sequence: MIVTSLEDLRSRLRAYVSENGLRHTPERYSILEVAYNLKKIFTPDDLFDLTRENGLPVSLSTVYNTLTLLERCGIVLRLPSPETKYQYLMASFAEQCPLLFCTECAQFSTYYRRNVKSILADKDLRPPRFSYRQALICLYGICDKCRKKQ
Briefly: EMSA.

Data set [2] deals with T1, Zn(II)Har150 (Porphyromonas gingivalis ATCC 33277). Put plainly: competition.
The data set “SEC” deals with the molecule itself. Put plainly: SEC.

“GGTGTTGATAACTCGGTCGCGCCTTGGTCGGCTTTCGTATAAGTGTCTGGAATGCAGTGGAATAGCGTTGTTTCCTTCGCTGTTTATATCTCAAGGTTATAACCATCTGAAAACAATATAGATACGATTCATCTGAATTATACTACACTTTTTGTCGATTGTTTTTTTACTCTTTTGTTTGAACCTTTGCTATCCCCAAAGGAGCAATGAACGACTGCTCTCAAAACGATATTTTTTTAG (double strand) [FAM-dnaA (PGN_0001) promoter]”: the binding result in data set [1] is “binds”.

As to “GGTGTTGATAACTCGGTCGCGCCTTGGTCGGCTTTCGTATAAGTGTCTGGAATGCAGTGGAATAGCGTTGTTTCCTTCGCTGTTTATATCTCAAGGTTATAACCATCTGAAAACAATATAGATACGATTCATCTGAATTATACTACACTTTTTGTCGATTGTTTTTTTACTCTTTTGTTTGAACCTTTGCTATCCCCAAAGGAGCAATGAACGACTGCTCTCAAAACGATATTTTTTTAG (double strand) [dnaA (PGN_0001) promoter 240 bp]”, the binding result in data set [2] and in data set [1] was “binds” each time.

B1: Zn(II)Har, recombinant Porphyromonas gingivalis Har (heme associated regulator, Fur orthologue PGN_1503) (natural protein, Porphyromonas gingivalis ATCC 33277, UniProt B2RKX7 1-166, looked up)
chain: MIVTSLEDLRSRLRAYVSENGLRHTPERYSILEVAYNLKKIFTPDDLFDLTRENGLPVSLSTVYNTLTLLERCGIVLRLPSPETKYQYLMASFAEQCPLLFCTECAQFSTYYRRNVKSILADKDLRPPRFSYRQALICLYGICDKCRKKQSALKKAADKAAPKKKK
notes: Har (Fur family transcriptional regulator), P. gingivalis ATCC 33277, gene PGN_1503 (501 bp), full length; Factor Xa site (IEGR) immediately before the start of har; Measured mass of apo-Har 19157.46 Da fits the theoretical 19157.20 Da; also called PgHar; rHar; source: E. coli BL21(DE3), purified (GSTrap, on-column Factor Xa cleavage, cation exchange, size exclusion); not shown: GST, N-terminal, …
Regarding B1, the stoichiometry N – broadly, a count of units in the complex or per binding partner – in the data set “SEC” is 2.

B2: Zn(II)C97A, recombinant P. gingivalis Har with Cys97 substituted with Ala (natural protein)
chain: MIVTSLEDLRSRLRAYVSENGLRHTPERYSILEVAYNLKKIFTPDDLFDLTRENGLPVSLSTVYNTLTLLERCGIVLRLPSPETKYQYLMASFAEQAPLLFCTECAQFSTYYRRNVKSILADKDLRPPRFSYRQALICLYGICDKCRKKQSALKKAADKAAPKKKK
notes: also called HarC97A; source: E. coli BL21(DE3), purified (GSTrap, on-column Factor Xa cleavage, cation exchange, size exclusion); not shown: GST, N-terminal, cleaved
Take B2: the “stoichiometry N” value in the data set “SEC” stood at 2.

B3: Zn(II)Har150, recombinant P. gingivalis Har truncated by 16 amino acids at the C-terminus (domain or fragment)
chain: MIVTSLEDLRSRLRAYVSENGLRHTPERYSILEVAYNLKKIFTPDDLFDLTRENGLPVSLSTVYNTLTLLERCGIVLRLPSPETKYQYLMASFAEQCPLLFCTECAQFSTYYRRNVKSILADKDLRPPRFSYRQALICLYGICDKCRKKQ
notes: source: E. coli BL21(DE3), purified (GSTrap, on-column Factor Xa cleavage, cation exchange, size exclusion); not shown: GST, N-terminal, cleaved
Take B3: the “stoichiometry N” value in “SEC” came to 2.

The values above are taken from PMC4222909, “The Porphyromonas gingivalis Ferric Uptake Regulator Orthologue Binds Hemin and Regulates Hemin-Responsive Biofilm Development” (PLoS ONE, 2014).
